Laboratory results as given in patent publication US12454527B2, “Conjugate monomethyl auristatin E to obtain a composition for treatment of prostate cancer” (priority 2019, dated 2025).
Several values for one entry are separate records, joined by “and”; a condition that tells them apart may be missing. Equal values may be shown once. Entries after “also recorded” stand apart in the source; their conditions may differ. Read-outs that look alike come from different tables or passages of the source. Starred links: 1 amine or outer side, 2 acyl side, 3 side chain; linkers in the order of their positions; H or OH if unused. Non-standard residues stand in square brackets, D forms with d. Residues, ends and D or L forms follow the SMILES beside them. ξ: configuration not given here. *: point of attachment. GluureaLys(ε-3-ClBenzyl) = O=C(O)CC[C@H](NC(=O)N[C@@H](CCCCN(Cc1cccc(Cl)c1)*)C(=O)O)C(=O)O; Dolaproine = CO[C@@H]([C@@H]1CCCN1)[C@@H](C)C(=O)O; Dil = CC[C@H](C)[C@H](NC)[C@@H](CC(=O)O)OC; X1 = O=C(CCCc1cn(CCCN[*:1])nn1)[*:2]; PABC = O=C(OCc1ccc(N[*:1])cc1)[*:2]; X2 = C[C@@H](N*)[C@@H](O)c1ccccc1; Cit = NC(=O)NCCC[C@H](N)C(=O)O; Suc = O=C(CCC(=O)[*:2])[*:1]; NMeV = CN[C@H](C(=O)O)C(C)C; ξV = CC(C)C(N)C(=O)O; Ahx = NCCCCCC(=O)O

What was measured:
[1] = Acute toxicity study, single intravenous administration, rats; assay type: in vivo; details: for Necropsy (per animal): day 14; for Necropsy (per animal) / Necropsy / Signs of intoxication / Body weight dynamics in % of initial body weight, Day 5 (individual animals) / Body weight dynamics in % of initial body weight, Day 10 (individual animals) / Body weight dynamics in % of initial body weight, Day 14 (individual animals): listed as test drug; for Body weight dynamics in % of initial body weight, Day 5, M ± SD / Body weight dynamics in % of initial body weight, Day 5 (individual animals) / Body weight dynamics in % of initial body weight, Day 10, M ± SD / Body weight dynamics in % of initial body weight, Day 10 (individual animals) / Body weight dynamics in % of initial body weight, Day 14, M ± SD / Body weight dynamics in % of initial body weight, Day 14 (individual animals): single administration; for Body weight dynamics in % of initial body weight, Day 5, M ± SD: Day 5, group mean; for Body weight dynamics in % of initial body weight, Day 10, M ± SD: Day 10, group mean; for Body weight dynamics in % of initial body weight, Day 14, M ± SD: Day 14, group mean
Source text: Acute toxicity study of Conjugate (I) product on mice and rats.
• 1. Conjugate (I). • 2. Solubilizer Pluronic F127—in the amount, five-fold greater than the conjugate amount by weight. • 3. Diluent Haemodes infusion solution. • 4. Dimethyl sulfoxide—in the amount of 5% of the prepared volume.
The experiment took white outbred male mice aged about 2 months with body weight of 19-21,g, and also white outbred mature male rats aged about 2 months with body weight 190-210 g.
Acute toxicity study was performed within the intravenous administration. Before the start of the experiment to determine an acute toxicity, the animals were deprived of food and water (mice were deprived for 2 hours, rats—for 10-12 hours), and then weighed. Then each animal received the intravenous drug injection according to the study design, in a volume not exceeding the acceptable single injection volume: 0.5 mL for mice, 2 mL for rats, and fractionally if necessary. The control group of animals received Pluronic solution in Haemodes in the proportion used fort dose preparation of 78 mg/kg for mice and 38 mg/kg for rats. The duration of observation for laboratory animals was 14 days. During this period, visible signs of intoxication were assessed (see Table 9).

[2] = Pharmacokinetics in plasma of rats after a single injection; assay type: in vivo; details: male, white outbred, rat, plasma
Method: The pharmacokinetics study for the Conjugate (I) product in plasma of rabbits and rats after a single injection.
The leporids and rodents are the standard targets for preclinical studies of potential drug products as well as determining the pharmacokinetic parameters. The rabbits and rats are recommended as test systems to study pharmacokinetic properties of pharmaceutical products by the regulatory documents (FIG. 7, FIG. 8).
This study was performed on healthy awake white outbred mature male rats aged about 3 months with body weight of 190-210 g. […] The pharmacokinetic data, determined from this number of test animals, are sufficient to obtain the primary quantitative characteristics of test product distribution and elimination and the calculation of descriptive statistics parameters.
• 1. Conjugate (1) • 2. Solubilizer Pluronic F127—in the amount, five-fold greater than the conjugate amount by weight. • 3, Diluent—Haemodes infusion solution. • Dimethyl sulfoxide—in the amount of 5% of the prepared volume. • Rabbit experiment (see Tables 5, 6), • Rat experiment (see Tables 7, 8).

[3] = 3 mg/kg, group 11, males, 3 mg/kg
[4] = 4 mg/kg, group 12, males, 4 mg/kg
[5] = rats N=6, read-out: Concentration in blood plasma, Geometr. mean
[6] = rats N=6, read-out: Concentration in blood plasma, Mean value
[7] = rats N=6, read-out: Concentration in blood plasma, Median

In the case of `CC[C@H](C)[C@@H]([C@@H](CC(=O)N1CCC[C@H]1[C@H](OC)[C@@H](C)C(=O)N[C@H](C)[C@@H](O)c1ccccc1)OC)N(C)C(=O)[C@@H](NC(=O)[C@H](C(C)C)N(C)C(=O)OCc1ccc(NC(=O)[C@H](CCCNC(N)=O)NC(=O)C(NC(=O)CCCc2cn(CCCNC(=O)[C@H](Cc3ccc(O)cc3)NC(=O)[C@H](Cc3ccccc3)NC(=O)CCC(=O)NCCCCCC(=O)N(CCCC[C@H](NC(=O)N[C@@H](CCC(=O)O)C(=O)O)C(=O)O)Cc3cccc(Cl)c3)nn2)C(C)C)cc1)C(C)C` (stereo partly drawn) [Conjugate (I)] ({GluureaLys(ε-3-ClBenzyl)-Ahx-Suc}-FY[X1][ξV][Cit][PABC][NMeV]V[Dil][Dolaproine]-X2), the “Body weight effect (summary)” value ([1]; male rats, all test doses) is reported as “decreased growth rate or decreased body weight regarding the initial One”, the Fatality ([1]; male rats, i.v. 4 mg/kg) is reported as 0 and the Fatality ([1]; male rats, i.v. 4.5 mg/kg) is reported as 3. It also gave a Fatality ([1]; male rats, i.v. 5 mg/kg) of 5, a Fatality ([1]; male rats, i.v. 5.1 mg/kg) of 4 and a Fatality ([1]; male rats, i.v. 5.4 mg/kg) of 10. The MTD at 14 days ([1]; male, white outbred, rat, in vivo, iv, rats, single i.v., read-out: Maximum tolerated dose) was 4 mg/kg, the “Necropsy (per animal)” value ([1]; rats, 1 mg/kg i.v., 1 mg/kg) was 1- NORMAL and 2- NORMAL and 3- light kidneys and 4- NORMAL and 5- NORMAL and 6- light kidneys, blurred pattern lines and 7- adrenals glands had hemorrhages, kidneys are and 8- light kidneys and 9- large spleen, granular kidneys and 10- kidneys with hemorrhages and the “Necropsy (per animal)” value ([1]; rats, 2 mg/kg i.v., 2 mg/kg) was 1- very light kidneys, unclear pattern, large spleen and 2- light-brown kidneys, dark adrenal glands with and 3- light-brown kidneys with hemorrhages, kidney cut and 4- light-brown kidneys with hemorrhages, kidney cut and 5- kidneys are lighter than a standard and 6- kidneys are almost standard, dark and increased and 7- spotted liver, light kidneys, their structure is visible and 8- liver is lighter than a standard, light kidneys and 9- dark maroon pancreas, increased and bloody adrenal and 10- dark maroon pancreas, kidneys with hemorrhages,. For the same compound, the “Necropsy (per animal)” value ([1]; rats, 3 mg/kg i.v., 3 mg/kg) was 1- light kidneys with hemorrhages and 2- light kidneys with hemorrhages, blurred pattern and 3- light kidneys with hemorrhages and 5- standard kidneys and 6- kidneys with hemorrhages, clear cut pattern and 7- light, spotted, unevenly stained kidneys and 8- light kidneys and 9- light kidneys, increased adrenal glands, kidneys with and 10- kidneys with hemorrhages, dark and increased, the “Necropsy (per animal)” value ([1]; rats, 4 mg/kg i.v., 4 mg/kg) was 1- kidneys with hemorrhages, unclear pattern and 2- spotted kidneys with hemorrhages, clear pattern and 3- increased right adrenal gland, standard kidneys and 4- slightly increased adrenal glands, with hemorrhages, and 5- spotted kidneys with hemorrhages, clear pattern and 6- standard kidney color, blurred cut pattern, unclear and 7- kidney surface hemorrhages, visible pattern and 8- light kidneys with hemorrhage foci, unclear pattern of and 9- slightly increased, hyperemic adrenal glands, kidney and 10- standard kidneys and the Necropsy ([1]; rats, 4.5 mg/kg i.v., dead No. 4 and survivors day 14, 4.5 mg/kg) was “increased and hyperemic kidneys; spotted, dark kidneys;; also recorded: Only rat No. 5 had Sight kidneys; also recorded: Others had standard ones”. The Necropsy ([1]; rats, 5 mg/kg i.v., dead animals and survivors day 14, 5 mg/kg) was 2 - light brown kidneys with greenish shade, blurry cut and All rats had a large spleen, the Necropsy ([1]; rats, 5.1 mg/kg i.v., survivors day 14, 5.1 mg/kg) was “One animal had increased adrenal glands, very light; also recorded: Others had standard ones” and the “Toxic effect (summary)” value ([1]; rats, acute i.v.) was “diarrhea and the renal damage”. For the same compound, the Signs of intoxication ([1]; rats, single i.v. 1 mg/kg, 1 mg/kg) was “No diarrhea was observed on Day 5”, the Signs of intoxication ([1]; rats, single i.v. 3 mg/kg, 3 mg/kg) was “All animals experienced diarrhea on Day” and the Signs of intoxication ([1]; rats, single i.v. 4.5 mg/kg, 4.5 mg/kg) was “Decreased mot. activity - 5-40 minutes; also recorded: Shortness of breath - 1-60 minutes; also recorded: diarrhea, cachexia, porphyria, decreased”. For the same compound, the Signs of intoxication ([1]; rats, single i.v. 5 mg/kg, 5 mg/kg) was “All animals developed diarrhea/cachexia”, the Signs of intoxication ([1]; rats, single i.v. 5.1 mg/kg, 5.1 mg/kg) was “Decreased mot. activity - 5-40 minutes; also recorded: Shortness of breath - 1-60 minutes; also recorded: Days 1-2 - all animals had diarrhea,; also recorded: Death cases occurred in 2 days (2), 4” and the Signs of intoxication ([1]; rats, single i.v. 5.4 mg/kg, 5.4 mg/kg) was “Decreased mot. activity - 5-40 minutes; also recorded: Shortness of breath - 1-60 minutes; also recorded: Days 1-2 - all animals had diarrhea,; also recorded: No standard achieved; also recorded: Two animals had the hindlimb paresis”. The Signs of intoxication ([1]; rats, single i.v. 6 mg/kg, 6 mg/kg) was “on Day 2 - all animals showed diarrhea”, the Signs of intoxication ([1]; rats, single i.v. 8 mg/kg, 8 mg/kg) was “diarrhea, general starvation, adynamia” and the “Body weight dynamics in % of initial body weight, Day 5, M ± SD” value ([1]; 3 mg/kg, group 11, males) was −0.2 ± 7.1%. The “Body weight dynamics in % of initial body weight, Day 5 (individual animals)” value [1, 3] was −1.5% and −11.2% and −5.1% and 10.8% and −9.4% and 5.5% and 1.4% and −2.4% and 2.0% and 7.6%, the “Body weight dynamics in % of initial body weight, Day 10, M ± SD” value ([1]; 3 mg/kg, group 11, males) was 17.2 ± 6.1% and the “Body weight dynamics in % of initial body weight, Day 10 (individual animals)” value [1, 3] was 17.3% and 5.9% and 16.4% and 25.1% and 11.4% and 20.1% and 19.7% and 17.1% and 13.2% and 26.1%. The “Body weight dynamics in % of initial body weight, Day 14, M ± SD” value ([1]; 3 mg/kg, group 11, males) was 22.8 ± 6.0%, the “Body weight dynamics in % of initial body weight, Day 14 (individual animals)” value [1, 3] was 20.8% and 10.1% and 20.0% and 29.1% and 16.8% and 27.1% and 26.4% and 23.8% and 24.9% and 29.4% and the “Body weight dynamics in % of initial body weight, Day 5, M ± SD” value ([1]; 4 mg/kg, group 12, males) was −7.7 ± 7.6%. For the same compound, the “Body weight dynamics in % of initial body weight, Day 5 (individual animals)” value [1, 4] was 6.1% and −15.2% and −5.9% and 0.0% and −3.0% and −4.1% and −13.7% and −17.1% and −9.2% and −14.4%, the “Body weight dynamics in % of initial body weight, Day 10, M ± SD” value ([1]; 4 mg/kg, group 12, males) was 11.0 ± 11.5% and the “Body weight dynamics in % of initial body weight, Day 10 (individual animals)” value [1, 4] was 25.5% and 2.5% and 16.3% (2×) and 22.2% and 19.1% and 5.9% and −10.5% and 14.5% and −1.9%. The “Body weight dynamics in % of initial body weight, Day 14, M ± SD” value ([1]; 4 mg/kg, group 12, males) was 20.1 ± 12.1%, the “Body weight dynamics in % of initial body weight, Day 14 (individual animals)” value [1, 4] was 35.2% and 11.7% and 24.6% and 31.7% and 28.1% (2×) and 18.0% and 1.0% (2×) and 21.7% and the LD50 at 14 days ([1]; white outbred, rat, in vivo, iv, male rats, single i.v., read-out: LD50 (median lethal dose)) was 4.9 mg/kg. The half-life ([2]; intravenous, 1.5 mg/kg, rats, individual animals) was 4.11 h, the MRT last ([2]; intravenous, 1.5 mg/kg, rats, individual animals, read-out: MRT 0-t) was 3.98 h and the level at 0.08 h [2, 5] was 19000 ng/mL. It also gave a level at 0.08 h [2, 6] of 26100 ng/mL, a level at 0.08 h [2, 7] of 19100 ng/mL and a level at 0.25 h [2, 5] of 17000 ng/mL. For the same compound, the level at 0.25 h [2, 6] was 19900 ng/mL, the level at 0.25 h [2, 7] was 18000 ng/mL and the level at 0.5 h ([2]; rats N=6, 0.50 hour, read-out: Concentration in blood plasma, Geometr. mean) was 16200 ng/mL.
